From the supplement of paper PMC10567573

B1: DVL3 (parent)
chain: HPDPAPFCADNPSELPPPMERTGG
B2: SAT2 (parent)
chain: LTEAEGWHFFCFQGEATRKLAGK

Variants of: B1
Test: protein stability index of a GFP-peptide fusion (GPS, HEK-293T) (PSI 1-6); higher = more stable
Settings: c terminus: a fixed tail appended
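Note: lentivirally expressed fusions sorted by FACS into six bins by GFP to DsRed ratio, PSI derived from sequencing read proportions per bin multiplied by bin number.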

Protein stability index of substitutions, site by site:
G23: V 2.47 | M 2.62 | W 2.07 | R 2.89
P18: V 3.15 | R 2.8 | I 2.82 | W 2.35 | N 3.2 | G 2.79 | H 2.69 | S 3.05 | M 2.68 | E 3.32 | C 2.94 | L 2.95 | Y 2.61 | K 2.53 | T 3.12 | F 2.7 | Q 3.42 | A 2.48 | D 3.27
T22: W 2.22 | V 2.02 | G 2.5 | R 2.58 | L 2.94 | Q 2.78 | A 3.02 | D 3.31 | E 2.88 | M 2.96 | K 2.85
P17: W 2.54 | Y 2.86
E20: G 1.73
G24: S 3.1

Variants of: B2
Test: as above
Settings: c terminus: native

Protein stability index of substitutions, site by site:
G6: R 3.03 | P 2.78 | C 1.5 | H 2.14 | F 1.79 | I 2.49 | A 1.58 | S 2.27 | Y 1.61 | M 2.05 | D 3.48 | K 2.15 | V 2.15 | E 3.1 | Q 2.6 | N 2.56 | T 2.03
G14: T 2.1 | E 2.83 | L 1.73 | N 2.76 | M 1.76 | I 4.25 | Q 1.96 | P 1.83 | H 1.9 | S 1.73 | K 2.23 | Y 3.67 | V 2.33 | C 1.19 | W 2.8 | A 2.48 | D 3.17
T17: F 1.61 | D 2.79 | C 1.8 | N 2.53 | H 1.77 | E 2.7 | G 2.15 | S 1.48 | Q 2.63 | M 2.46 | Y 2.01 | V 2.21 | L 2.04 | P 3.05 | I 1.35 | R 2.26
H8: I 2.19 | V 1.91 | T 3.27 | K 3.24 | F 1.9 | E 3.41 | R 1.54 | P 2.97 | N 3.91 | A 2.21 | Q 2.15 | G 3.25 | C 1.78 | D 3.44
L1: H 1.48 | D 3.43 | K 2.81 | V 2.22 | A 2.58 | T 2.33 | C 2.48 | S 3.02 | M 2.34 | I 1.79 | Q 3.47 | E 3.73 | R 2.09 | N 3.57 | G 4.09
E5: T 1.94 | Q 2.16 | C 1.26 | K 1.18 | I 3.25 | A 2.17 | P 1.86 | H 1.85 | S 2.17 | M 4.97 | F 1.79 | L 1.29 | W 2.44 | V 1.36 | Y 1.97 | N 1.73
W7: N 4.35 | S 4.22 | F 2.22 | H 3.96 | R 3.72 | I 2.63 | K 3.88 | L 3.12 | E 4.9 | C 3.87 | Q 4.29 | V 3.42 | Y 2.58 | T 4.08 | D 4.63 | G 3.63 | P 4.43 | M 3.5
Q13: A 2.14 | C 1.48 | V 1.9 | L 1.67 | T 1.35 | N 2.72 | H 1.56 | Y 2.66 | M 1.07 | G 1.61 | R 1.93 | K 2.63 | E 2.89 | P 2.94 | D 3.14
T2: Y 1.56 | A 1.38 | N 2.75 | H 2.32 | P 2.12 | C 1.99 | W 1.11 | E 3.48 | M 2.71 | G 1.76 | F 1.8 | K 2.14 | I 3.08 | Q 2.48 | R 2.14 | S 2.34 | D 2.97
F9: N 3.52 | K 4.13 | E 4.43 | M 2.51 | S 3.56 | Q 3.63 | D 4.19 | L 1.85 | Y 2.69 | I 2.23 | P 4.17 | R 3.77 | T 3.64 | A 3.78 | G 3.69 | H 3.48 | C 3.12
A16: E 2.79 | G 2.38 | T 1.68 | Q 2.58 | S 2.12 | W 1.08 | P 2.33 | V 2.3 | R 1.98 | M 2.1 | F 1.59 | C 2.46 | N 2.67 | Y 2.03 | L 3.02 | H 2.63 | I 1.64 | D 3.16
F12: Y 2.48 | G 3.42 | C 3.39 | D 4.53 | M 2.5 | N 3.84 | Q 4.04 | A 3.56 | S 3.73 | H 3.95 | K 4.01 | W 2.35 | P 3.85 | T 3.88 | L 2.48 | R 2.87 | I 2.55 | E 3.33
R18: K 2.8 | N 2.59 | D 3.15 | M 1.71 | H 2.3 | L 1.53 | C 1.92 | A 2.09 | G 2.07 | I 3.84 | F 1.5
E15: Y 2.69 | M 1.57 | S 1.74 | P 1.97 | T 2.72 | W 1.77 | L 3.25 | N 1.86 | K 3.63 | G 2.09 | F 1.57 | H 2.13 | C 2.15 | A 1.59
A4: K 2.61 | T 2.9 | Y 1.56 | H 3 | S 2.66 | E 3.14 | V 1.64 | F 1.31 | L 2.14 | N 2.87 | Q 2.36 | P 3.18 | M 1.66 | D 2.37 | C 1.45 | G 2.68 | R 2.17 | W 2.27
E3: I 3.97 | P 1.74 | L 1.58 | T 2.11 | Q 1.82 | R 1.43 | S 1.75 | M 2.56 | D 2.49 | F 1.64 | K 1.25 | Y 2.18 | A 1.79 | N 1.48 | H 1.67 | G 1.78 | C 1.89 | W 1.37
C11: V 2.37 | H 2.99 | K 3.5 | Y 2.12 | G 3.13 | I 1.66 | L 2.42 | W 1.57 | Q 3.46 | S 3.68 | M 2.6 | T 2.94 | R 2.33 | N 3.04 | P 3.7 | E 3.27 | D 3.45 | A 2.09
F10: D 4.69 | S 4.25 | Y 1.92 | W 1.94 | C 2.56 | A 3.48 | I 2.42 | N 3.94 | Q 3.61 | E 4.18 | K 3.77 | P 4.44 | H 3.46 | T 3.99 | V 2.34 | R 3.28 | G 4.09 | M 3.39 | L 2.68
